Data as given in patent US20260265360A1, “USE OF ANTI-FAM19A5 ANTAGONISTS FOR TREATING HEARING DISORDERS” (NEURACLE SCIENCE CO., LTD., priority 2023, published 2026).

Key:
FAM19A5 antigen = FAM19A5 antigen (Homo sapiens, UniProt Q7Z5A7); test: Cross-competition two-site sandwich ELISA; type: binding; details: antibodies 1-65, P2-A03, P2-F11, 13B4, 2-13, 3-2; cross-competition = S/N ratio lower than 2
Description: The term “S/N” refers to the signal to noise ratio, which is measured as follows: [O.D. of 10 ng/ml antigen]/[O.D. of 0 ng/ml antigen].
Next, a two-site sandwich ELISA was used as described below to assess whether the different anti-FAM19A5 antibodies with similar binding epitopes cross-compete with each other.
First, the indicated anti-FAM19A5 antibodies were diluted in 1×PBS to a concentration of 10 μg/mL. The diluted anti-FAM19A5 antibodies (10 μg/mL in 1×PBS) (“capture antibody”) were used to coat the 96-well plates (100 μL/well) at 37° C. for approximately 1 hour. After the incubation, the plates were washed with the washing buffer (0.01% Tween-20/PBS; also called 0.01% PBST) for a total of five washes, blocked with the blocking solution (5% BSA/PBS; also called 5% PBSA) (250 μL/well) for one hour at 37° C., and then washed again. Next, 100 μg/mL of the FAM19A5 antigen (diluted in PBS containing 5% BSA, 0.01% Tween-20; also called 5% PBSAT; “diluent buffer) was added to each of the wells, and the 96-well plates were incubated for 2 hours at 37° C. After the incubations, the plates were washed using 0.01% PBST for a total of five washes. After the final wash, the indicated biotinylated anti-FAM19A5 antibodies (“detection antibody”) (diluted to lug/mL in 5% PBSAT) were added to the relevant wells (100 μL volume) and the plates were incubated for an additional 1 hour at 37° C. Afterwards, the plates were washed again with 0.01% PBST (five total washes). Next, 100 μL of the diluted (1/2000 in 5% PBSAT) Streptavidin-HRP (1 mg/mL, Sigma, USA) was added to the wells, and the plates were incubated for 30 minutes at room temperature. The plates were then washed and treated with 100 μL of the TMB substrate ([…], Thermo Fisher Scientific). After an additional 30-minute incubation at room temperature, the color change reaction was induced by the addition of the TMB substrate. This reaction was stopped using 50 μL of sulfuric acid (2N H2SO4), and the extent of color change was detected via absorption at 450 nm with reference wavelength at 620 nm using a 96 well microplate reader (Molecular Device).

[1] = system: human FAM19A5 protein epitope fragments F1-F6; test: Epitope mapping: binding to BSA-conjugated FAM19A5 epitope fragments F1-F6 (Western blot / ELISA); details: Western blot and/or ELISA
Description: (§1) Overlapping peptide fragments (F1-F6 epitope fragments; SEQ ID NOs: 178-183) of the human FAM19A5 protein were synthesized and conjugated to BSA (SEQ ID NOs: 322-327). Binding of the different anti-FAM19A5 antibodies to the BSA-conjugated peptide fragments F1-F6 was determined by Western blot analysis or ELISA assay. For the Western blot analysis, BSA-conjugated FAM19A5 fragments F1-F6 were separated by SDS polyacrylamide gel electrophoresis and transferred to a nitrocellulose membrane by the standard procedure. The membrane was incubated with the anti-FAM19A5 antibody (e.g., 1-65, […], 1-65-scFv-rabbit Fc-SSS), and the antigen-antibody complexes were detected with the appropriate secondary antibody conjugated with horse-radish peroxidase (anti-rabbit IgG (Fc specific)-HRP, 1:4000 dilution). For the ELISA assay, the following protocol was used. FAM19A5 fragment F1-F6 (diluted to 1 μg/mL in 50 mM carbonate buffer (Biosesang) or to 20 μg/mL for high concentration analysis) were used to coat the wells of 96-well immuno plates (Thermo Scientific) (100 μL/well) overnight at 4° C. and then subsequently washed twice in 1×PBS. The plates were then blocked with the blocking buffer (100 μL/well) for 1 hour at room temperature. During the 1-hour incubation, the relavant anti-FAM19A5 antibodies were diluted to 1 μg/mL (or 20 μg/mL for high concentration analysis) in the diluent buffer. Once the plates were washed (2× using 1×PBS), the diluted anti-FAM19A5 antibodies were added to the appropriate wells, and the plates were incubated at room temperature for 1 hour. The plates were subsequently washed for a total of five times using the washing buffer. Next, the ODP substrate (prepared by dissolving one ODP tablet (O-phenylenediamine Dihydrochloride, Thermo) into 9 mL of sterilized deionized water and 1 mL of 10× stable Peroxide Stable buffer (Theromo)) was added to each of the wells, and the color change reaction was allowed to occur for 10 minutes. This reaction was stopped by adding 100 μL of 2N H2SO4 (Daejung) to the wells. The absorption value of each of the wells was detected at 492 nm using a 96-well microplate reader (Molecular Device).

[2] = system: FAM19A5 epitope fragment F5 mutant peptides F5-1 to F5-8; test: ELISA binding to mutant F5 peptide fragments (alanine substitution); parameters: species or system human
Description: as §1
Next, to identify the specific amino acid residues within the eptitope fragment F5 that the 1-65 and P2-C12 antibodies bind to, different amino acid residues of the F5 fragment were replaced with alanine as shown in Table 11 (below). The mutated residues are bolded and underlined. The binding affinity of the indicated anti-FAM19A5 antibodies were measured using an ELISA assay as described above.

FAM19A5 mutants M1 to M8 [3] = biological target: T1, FAM19A5 mutants M1 to M8 (Homo sapiens, UniProt Q7Z5A7, D98Q/K92L/K94R/L100E/P101L/Q95W/T93Q); test: Epitope mapping ELISA with FAM19A5 mutants M1-M8; type: binding
T1 construct: made in house; host or cells: phage display with helper phage
Description: (§2) To further characterize the binding epitopes of the anti-FAM19A5 antibodies disclosed in the present disclosure, the amino acid sequences for the different FAM19 family members (i.e., FAM19A1-5) were aligned. […] The amino acid sequences of these regions were replaced with the consensus sequence of the corresponding regions for the FAM19A1-4 proteins. See Table 13 (the mutated amino acid residues are bolded and underlined).
(§3) The mutant FAM19A5-expressing phages were prepared as follows. To prepare the media for phage culture, 55.6 ml of 2M Glucose (D-(+)-Glucose, Sigma), 5 mL of 1M MgCl2 (Magnesium chloride, Junsei) 1 mL of 34 mg/mL chloramphenicol (Sigma) were added to 2×YT media. Colonies obtained through mono-phage ELISA were selected and placed in 5 mL of prepared media (2×YT-GMC) to be cultured for 16 hours at 37° C. with shaking incubator (VS-8480, Vision). 100 μL of each culture was transferred to 10 mL 2×YT-GMC individually which were cultured at 37° C. in the incubator until detection value at O.D. 600 nm reached 0.5. Once detection value has reached 0.5 at O.D. 600 nm, 5 mL of each culture were obtained as samples to be infected. Following sample preparation, 50 μL of […] was added to individual samples then incubated at 37° C. without shaking for 30 minutes and with shaking for additional 30 minutes. Individual cultures were centrifuged for 15 minutes at 3,850 rpm using Micro centrifuge (Micro12, Hanil). The supernatants of centrifuged cultures were removed to be kept separate and replaced with 5 mL of 2×YT media containing 1 mL of IM IPTG (AG Scientific), 5 mL of 1M MgCl2.1 ml of 70 μg/μL kanamycin (Biopure) and 1 mL of Chloramphenicol. The resulting pellets were dispersed thoroughly in newly added media followed by incubation at 30° C. for 16 hours with stirring.

FAM19A5 mutants M1 to M8 [4] = biological target: T2, FAM19A5 mutants M1 to M8 (Homo sapiens, UniProt Q7Z5A7); test: Epitope mapping ELISA with FAM19A5 mutants M1-M8; type: binding
T2 construct: made in house; host or cells: phage display with helper phage
Description: as §2, §3

FAM19A5 mutants M1 to M8 [5] = biological target: T3, FAM19A5 mutants M1 to M8 (Homo sapiens, UniProt Q7Z5A7, D109K/G107E/I112P/L110T/N113D/R114N); test: Epitope mapping ELISA with FAM19A5 mutants M1-M8; type: binding
T3 construct: made in house; host or cells: phage display with helper phage
Description: as §2, §3

[6] = system: FAM19A5 epitope fragment F2 mutant peptides; test: ELISA binding to mutant F2 peptide fragments (alanine scanning); parameters: species or system human
Description: FIGS. 25A-25J provide the results of the alanine scanning analysis, showing the specific amino acid residues in the epitope F2 fragment that are important for the binding of the various 3-2 antibody variants to FAM19A5 protein. FIGS. 25A, 25B, 25C, and 25D show the results for the following antibodies generated in HEK293F cells: (A) wild-type 3-2 antibody, (B) 1-30 antibody, (C) 1-32 antibody, and (D) 6-10 antibody, respectively. FIGS. 25E, 25F, 25G, 25H, 25I, and 25J show the results for the following antibodies generated in CHO cells: (E) 1-17 antibody, (F) 1-30 antibody, (G) 1-32 antibody, (H) 4-11 antibody, (I) 6-10 antibody, and (J) low-PI antibody, respectively. […] Binding of the antibodies to the different mutant peptides was measured using ELISA.
Overlapping peptide fragments (F1-F6 epitope fragments; SEQ ID NOs: 178-183) of the human FAM19A5 protein were synthesized and conjugated to BSA (SEQ ID NOs: 322-327). Binding of the different anti-FAM19A5 antibodies to the BSA-conjugated peptide fragments F1-F6 was determined by Western blot analysis or ELISA assay. […] The membrane was incubated with the anti-FAM19A5 antibody (e.g., 1-65, […], 1-65-scFv-rabbit Fc-SSS), and the antigen-antibody complexes were detected with the appropriate secondary antibody conjugated with horse-radish peroxidase (anti-rabbit IgG (Fc specific)-HRP, 1:4000 dilution). […]

FAM19A5 mutants M1 to M8 [7] = biological target: T4, FAM19A5 mutants M1 to M8 (Homo sapiens, UniProt Q7Z5A7, D53C/P57N/Q56K/S54C/S55N); test: Epitope mapping ELISA with FAM19A5 mutants M1-M8; type: binding
T4 construct: made in house; host or cells: phage display with helper phage
Description: as §2, §3

FAM19A5 antigen, sequence (Q7Z5A7 44-132): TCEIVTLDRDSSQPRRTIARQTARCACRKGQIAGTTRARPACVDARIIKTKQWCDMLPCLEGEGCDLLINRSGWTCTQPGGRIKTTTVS
T3 sequence (Q7Z5A7 26-125 isoform Q7Z5A7-2 G100E/D102K/L103T/I105P/N106D/R107N): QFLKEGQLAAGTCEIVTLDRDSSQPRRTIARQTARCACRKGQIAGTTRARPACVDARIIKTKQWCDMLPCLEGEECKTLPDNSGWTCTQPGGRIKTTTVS
T2 sequence (Q7Z5A7 with tags, fused parts or gaps isoform Q7Z5A7-2, change not shown): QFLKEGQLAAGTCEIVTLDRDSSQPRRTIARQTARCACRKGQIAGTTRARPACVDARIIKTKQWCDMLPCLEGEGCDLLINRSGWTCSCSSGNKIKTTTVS
T1 sequence (Q7Z5A7 26-125 isoform Q7Z5A7-2 K85L/T86Q/K87R/Q88W/D91Q/L93E/P94L): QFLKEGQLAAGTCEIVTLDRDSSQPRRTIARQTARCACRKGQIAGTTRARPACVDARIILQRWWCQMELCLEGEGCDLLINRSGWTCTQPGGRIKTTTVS
T4 sequence (Q7Z5A7 26-125 isoform Q7Z5A7-2 D46C/S47C/S48N/Q49K/P50N): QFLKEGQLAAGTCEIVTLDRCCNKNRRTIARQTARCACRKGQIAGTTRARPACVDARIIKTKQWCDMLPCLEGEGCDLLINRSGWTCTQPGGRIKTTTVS

Molecule	cross-competition with the other anti-FAM19A5 antibodies (FAM19A5 antigen)	binding to epitope fragment F5 [1]	binding to F5 fragment with D13, L14, I16 or R18 mutated to alanine ([2]; numbering per SEQ ID NO: 275)	binding to F5 mutant peptides #1, 5, 6, and 7 ([2]; similar affinity)	binding to FAM19A5 mutant M6 (FAM19A5 mutants M1 to M8 [3])	binding to FAM19A5 mutant M8 (FAM19A5 mutants M1 to M8 [4])	binding to FAM19A5 mutant M7 (FAM19A5 mutants M1 to M8 [5])	binding to mutant F2 peptide fragments #1, 2, 6, and 8-13 [6]	binding to mutant F2 peptide fragments #3, 4, 5, and 7 [6]	binding to FAM19A5 mutant M2 (FAM19A5 mutants M1 to M8 [7])
1-65: anti-FAM19A5 antibody; VH SEQ ID NO: 37, VL SEQ ID NO: 41 (antibody, V domains shown, 1-65 VH; 1-65 VL) VH: AVTLDESGGGLQTPGGALSLVCKASGFTFSSYQMGWVRQAPGKGLEWVGVINKSGSDTSYGSAVKGRATISRDNGQSTVRLQLNNLRAEDTGTYFCAKGSASYITAATIDAWGHGTEVIVSS VL: ALTQPSSVSANPGETVKITCSGGGSSGYGYGWYQQKSPSSAPLTVIYWNDKRPSDIPSRFSGSKSGSTHTLTITGVQAEDEAVYFCGNDDYSSDSGYVGVFGAGTTLTVL	cross-competed with one another	bound strongly	no longer able to bind	able to bind	failed to bind	failed to bind	failed to bind			
1-28: anti-FAM19A5 antibody; VH SEQ ID NO: 38, VL SEQ ID NO: 42 (antibody, V domains shown, 1-28 VH; 1-28 VL) VH: AVTLDESGGGLQTPGGALSLVCKASGFDFSDYGMGWVRQAPGKGLEWVAAIRSDGSNPSYGSAVKGRATISKDNGRSTVRLQLNNLRAEDTATYYCAKDGNGYCALDAYRSGGYSCGVYPGSIDAWGHGTEVIVSS VL: ALTQPSSVSANLEGTVEITCSGSGYGYGWYQQKSPGSAPVTVIYQNDKRPSDIPSRFSGSKSGSTGTLTITGVQVEDEAVYYCGSEDSSTLAGIFGAGTTLTVL								bound strongly	much reduced binding	failed to bind
